US20090042291A1 (published 2009)
Values belong to the binder of their own block, whether it stands above or below them.

Legend:
[1] = molecular target: T1, human FcγRIIb on cells (HEK293T cells transfected with human FcγRIIb cDNA; primary human B cells) (human, UniProt P31994 43-310); assay: flow cytometry on HEK293T cells transfected with human FcγRIIb, PE anti-human Fab detection
T1 construct: whole, on cells; also called CD32b
T1 sequence (looked up): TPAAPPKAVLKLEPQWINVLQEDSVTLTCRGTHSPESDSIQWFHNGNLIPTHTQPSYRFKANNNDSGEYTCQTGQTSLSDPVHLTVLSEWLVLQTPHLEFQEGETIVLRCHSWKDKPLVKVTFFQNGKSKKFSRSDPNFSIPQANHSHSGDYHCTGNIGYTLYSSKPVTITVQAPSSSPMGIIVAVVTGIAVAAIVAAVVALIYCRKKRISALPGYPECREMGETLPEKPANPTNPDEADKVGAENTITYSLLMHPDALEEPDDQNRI

[2] = molecular target: T2, human FcγRIIb receptor protein (R&D Systems) (human, UniProt P31994 46-217, limits assumed); assay: Biacore SPR
T2 construct: Bought
T2 sequence (looked up): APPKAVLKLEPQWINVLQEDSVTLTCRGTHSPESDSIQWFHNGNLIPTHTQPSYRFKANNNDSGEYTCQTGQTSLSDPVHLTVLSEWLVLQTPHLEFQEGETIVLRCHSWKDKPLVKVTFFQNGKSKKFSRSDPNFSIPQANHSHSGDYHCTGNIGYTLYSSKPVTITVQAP

EC50 fold relative to WT IgG1 [1]: ~320 fold
B1: anti-CD19 HuAM4G7 IgG1 S267E/L328F (antibody)
chain 1: not shown
chain 2: DIVMTQSPATLSLSPGERATLSCRSSKSLQNVNGNTYLYWFQQKPGQSPQLLIYRMSNLNSGVPDRFSGSGSGTEFTLTISSLEPEDFAVYYCMQHLEYPITFGAGTKLEIKRTVAAPSVFIFPPSDEQLKSGTASVVCLLNNFYPREAKVQWKVDNALQSGNSQESVTEQDSKDSTYSLSSTLTLSKADYEKHKVYACEVTHQGLSSPVTKSFNRGEC

Kd [2]: 71.9 nM
fold relative to native IgG1 [2]: 20.4 fold
B2: anti-CD19 HuAM4G7 IgG1 S267E (antibody)
chain 1: not shown
chain 2: B1 chain 2

Kd [2]: 408 nM
fold relative to native IgG1 [2]: 3.6 fold
B3: anti-CD19 HuAM4G7 IgG1 S267A (antibody)
chain 1: not shown
chain 2: B1 chain 2
